B1: full-length human 14-3-3ε (as used in the SEC titration) (natural protein, UniProt P62258 1-255, looked up)
chain: MDDREDLVYQAKLAEQAERYDEMVESMKKVAGMDVELTVEERNLLSVAYKNVIGARRASWRIISSIEQKEENKGGEDKLKMIREYRQMVETELKLICCDILDVLDKHLIPAANTGESKVFYYKMKGDYHRYLAEFATGNDRKEAAENSLVAYKAASDIAMTELPPTHPIRLGLALNFSVFYYEILNSPDRACRLAKAAFDDAIAELDTLSEESYKDSTLIMQLLRDNLTLWTSDMQGDGEEQNKEALQDVEDENQ
notes: human 14-3-3 protein epsilon, full length; Same construct as m21 (TEV-cleavable His6-tag)
B2: untagged full-length human 14-3-3ζ (natural protein, UniProt P63104 1-245, looked up)
chain: MDKNELVQKAKLAEQAERYDDMAACMKSVTEQGAELSNEERNLLSVAYKNVVGARRSSWRVVSSIEQKTEGAEKKQQMAREYREKIETELRDICNDVLSLLEKFLIPNASQAESKVFYLKMKGDYYRYLAEVAAGDDKKGIVDQSQQAYQEAFEISKKEMQPTHPIRLGLALNFSVFYYEILNSPEKACSLAKTAFDEAIAELDTLSEESYKDSTLIMQLLRDNLTLWTSDTQGDEAEAGEGGEN
notes: human 14-3-3 protein zeta, full length, untagged; also called wild-type dimeric 14-3-3ζ

Molecular target: T1, polyphosphorylated full-length SARS-CoV-2 nucleocapsid protein pN.1-419 (SARS-CoV-2, UniProt P0DTC9 1-419)
T1 construct: also called phosphorylated N; polyphosphorylated N; not shown: His6, N-terminal, kept
Assay: SEC
Conditions: both partners purified

Binder | Kd [µM] | stoichiometry N | binding result
B1 | 10.7 | ~1 14-3-3ε chains per pN.1-419 chain (2:2) | –
B2 | – | – | binds

Reference: PMC7863765 (Journal of Molecular Biology, 2021)
